Here are results for 10 molecules from patent publication EP4814012A1 (The United Bio-Technology (Hengqin) Co., Ltd., dated 2026).

Residue numbers refer to the chain shown, from its start.

The target in experiment [1] is T1, human IL-4Rα on cells (human, UniProt P24394 26-825).
T1 construct: whole, on cells; also called CHO-K1-hIL-4Rα; CHO-K1.IL-4Rα cells
Description: flow cytometry on CHO-K1 cells overexpressing hIL-4Rα. (In general: Flow cytometry measures light scatter and fluorescence of single cells or particles in a stream.)

Experiment [2] concerns the target T2, hIL-4Rα.ECD (human, UniProt P24394 26-232).
T2 construct: extracellular domain; also called hIL-4Rα protein
Description: SPR (Biacore 8K), antibody captured by anti-mouse Fc, hIL-4Rα.ECD analyte, 25°C. In general terms: SPR reads the build-up and loss of mass on a sensor chip optically.

The target of experiment [3] is T1, human IL-4Rα on cells. The experiment can be described thus: cell-based or functional assay.
In experiment [4] the target is T1, human IL-4Rα on cells. Description: cell-based or functional assay. The source holds these as a separate data set.
For experiment [5], the target named is T2, hIL-4Rα.ECD. Description: SPR (Biacore 8K), antibody captured, hIL-4Rα.ECD analyte, 25°C.
Experiment [6] has as its target T1, human IL-4Rα on cells. The experiment can be described thus: cell-based or functional assay. This is another data set of the same source.
The target of experiment [7] is T2, hIL-4Rα.ECD. Description: SPR, antibody captured by anti-human Fc on CM5, hIL-4Rα.ECD analyte.
Experiment [8] has as its target T1, human IL-4Rα on cells. Description: cell-based or functional assay. This is another data set of the same source.
The target in experiment [9] is T1, human IL-4Rα on cells. The experiment can be described thus: cell-based or functional assay. The source holds these as a separate data set.
Experiment [10] addresses T2, hIL-4Rα.ECD. Description: SPR (Biacore 8K), method same as 1.9, hIL-4Rα.ECD analyte.
For experiment [11], the target named is T3, hTSLP (human, UniProt Q969D9 29-159).
T3 construct: also called human TSLP; thymic stromal lymphopoietin
The experiment can be described thus: SPR (Biacore 8K), antibody captured, hTSLP analyte, 25°C.

Experiment [12] concerns the target T3, hTSLP. The experiment can be described thus: cell-based or functional assay.

B1: 1.34.4-Murine (antibody, V domains shown)
VH: QVQLQQPGAELVKPGASMKLSCKASGYTFTTYYIYWVKQRPGQGLEWIGGSNPSTGGTLFNEKFKTKATLTVDKYSSTAYMELSSLTFEDSAVYFCTRSGRYAPFTYWGQGTLVTVSA
VL: DIVMTQSHKVLSTSVGDRVIITCKASQDVSTSVAWYQQRPGHSPKLLIYSASYRFTGVPDRFTGSGSGTDFTFTISSVQAEDLAVYNCQQYSTTPFTFGSGTKLEIK
notes: See recheck
Usually EC50 stands for the midpoint of the concentration-response curve. Low values mean greater potency, high ones weaker potency. A word on the Kd: it is the free concentration of one partner at which half of the binding sites on the other are occupied at equilibrium, for simple one-to-one binding. High values mean a looser complex, low ones a tighter complex. As usually defined, the koff is the first-order rate constant of dissociation. High values mean a short-lived complex, low ones a long-lived complex. The term kon denotes the second-order rate constant of association. As to B1, a half-maximal response in experiment [1] (EC50) required 0.35 nM. Further, in [2], binding was characterised by a dissociation constant (Kd) of 0.369 nM, the koff turned out to be 0.000133 s⁻¹ and the kon was 361000 M⁻¹ s⁻¹. The “IC50 (nM), Cell-based Assay Data (hIL-13), STAT6-GFP reporter gene assay” value (“IC50 (nM), Cell-based Assay Data” below) in experiment [3] was determined as 1.38 nM.

B2: m8 (antibody, human IgG4 S228P, kappa, V domains shown)
VH: QVQLVQSGAEVKKPGASVKVSCKASGYTFTTYYIYWVRQAPGQGLEWMGGSNPSTGGTLDNEKFKTRVTMTVDKSTSTAYMELSSLRSEDTAVYYCTRSGRYAPFTYWGQGTLVTVSS
VL: DIQMTQSPSSLSASVGDRVTITCKASQDVSTSVAWYQQKPGKAPKLLIYSASYRFTGVPSRFSGSGSGTDFTFTISSLQPEDFATYYCQHYSTTPFTFGQGTKLEIKR
notes: also called m8 molecule; anti-IL-4R antibody m8
On to B2, for which the “IC50(pM), hIL-13 Blocking Activity, TF-1 proliferation inhibition assay” value (“IC50(pM) … TF-1 proliferation inhibition assay” below) in experiment [4] was found to be 125 pM. Further, in [5], the Kd was 0.0489 nM, the off-rate (koff) is 1.39e-05 s⁻¹ and the kon amounted to 285000 M⁻¹ s⁻¹. The “IC50(pM), hIL-4 Blocking Activity by Reporter Gene Assay” value (from here on “IC50(pM), hIL-4 Blocking Activity”) in experiment [6] was 16.4 pM. In experiment [7], this molecule had a Kd of 0.0437 nM, a koff of 3.95e-05 s⁻¹ and a kon of 903000 M⁻¹ s⁻¹. The “IC50 (pM), hIL-13 inhibitory activity, reporter gene assay (HEK-293T.STAT6-GFP cells)” value (“IC50 (pM), hIL-13 inhibitory activity” below) in experiment [8] was determined as 80 pM. The “IC50(pM), hIL-4 inhibitory activity, reporter gene assay (HEK-293T.STAT6-GFP cells)” value in experiment [9] turned out to be 210 pM.

B3: 1.34.4-z18 (antibody, human IgG4, V domains shown)
VH: B2 VH with D60F
VL: DIQMTQSPSSLSASVGDRVTITCKASQDVSTSVAWYQQKPGKAPKLLIYSASYRFTGVPSRFSGSGSGTDFTFTISSLQPEDFATYYCQQYSTTPFTFGQGTKLEIK
notes: Humanized with back-mutations; also called 1.34.4-z18 humanized antibody molecule
In experiment [10], B3 had a Kd of 0.567 nM, a koff of 0.000137 s⁻¹ and a kon of 242000 M⁻¹ s⁻¹.

B4: m27 (antibody, V domains shown)
VH: B2 VH with D60E, P104T
VL: B3 VL with Q89V, Q90H
notes: captured by anti-human Fc); also called m27 molecule
Consider B4, for which, in [4], the “IC50(pM) … TF-1 proliferation inhibition assay” value stood at 58.8 pM. The “IC50(pM), hIL-4 Blocking Activity” value in [6] is 249 pM. In addition, in [7], the equilibrium dissociation constant (Kd) worked out at 0.196 nM, the koff is 0.000112 s⁻¹ and the on-rate (kon) is 568000 M⁻¹ s⁻¹.

B5: 1.34.4 (humanized, CDR-grafted) (antibody, V domains shown)
VH: B2 VH with D60F, V72R, K74T, A79V, T97A
VL: B3 VL with F73L
In [10], B5 yielded a Kd of 0.512 nM, a koff of 0.0001 s⁻¹ and a kon of 196000 M⁻¹ s⁻¹.

B6: m21 (antibody, V domains shown)
VH: B2 VH with D60E
VL: B3 VL with Q89V, Q90H
notes: captured by anti-human Fc); also called m21 molecule
As to B6, the “IC50(pM) … TF-1 proliferation inhibition assay” value in experiment [4] is 66.5 pM. Also, the “IC50(pM), hIL-4 Blocking Activity” value in [6] stood at 286 pM. In experiment [7], this molecule came in with a Kd of 0.133 nM, a koff of 7.76e-05 s⁻¹ and a kon of 582000 M⁻¹ s⁻¹.

B7: 2.46.13-Murine (antibody, V domains shown)
VH: DVKLVESGGGLVKLGGSLKLSCAASGFTFSSYYMSWVRQTPEKRLELVAAINSNGGSTYSPDTVKGRFTISRDNAKNTLYLQMSSLKSEDTALYYCARRSLLGNHRDWYFDVWGAGTTVTVSS
VL: DIQMTQSPASLSASVGETVTITCRASENIYSYLAWYQQKQGKSPQLLVYNAKTLADGVPSRFSGSGSGTQFSLKINTLQPEDFGSYYCLHHYGTPLTFGAGTKLELK
notes: See recheck
In turn, B7 yielded an EC50 in experiment [1] of 0.28 nM. In experiment [2], this molecule came in with a dissociation constant Kd of 0.306 nM, a koff of 0.000118 s⁻¹ and a kon of 385000 M⁻¹ s⁻¹. In addition, the “IC50 (nM), Cell-based Assay Data” value in [3] was 2.23 nM.

B8: MTM (bispecific antibody, human IgG2, lambda)
heavy: QMQLVESGGGVVQPGRSLRLSCAASGFTFRTYGMHWVRQAPGKGLEWVAVIWYDGSNKHYADSVKGRFTITRDNSKNTLNLQMNSLRAEDTAVYYCARAPQWELVHEAFDIWGQGTMVTVSSASTKGPSVFPLAPCSRSTSESTAALGCLVKDYFPEPVTVSWNSGALTSGVHTFPAVLQSSGLYSLSSVVTVPSSNFGTQTYTCNVDHKPSNTKVDKTVERKCCVECPPCPAPPVAGPSVFLFPPKPKDTLMISRTPEVTCVVVDVSHEDPEVQFNWYVDGVEVHNAKTKPREEQFNSTFRVVSVLTVVHQDWLNGKEYKCKVSNKGLPAPIEKTISKTKGQPREPQVYTLPPSREEMTKNQVSLTCLVKGFYPSDIAVEWESNGQPENNYKTTPPMLDSDGSFFLYSKLTVDKSRWQQGNVFSCSVMHEALHNHYTQKSLSLSPGKGGGGSGGGGSQVQLVQSGAEVKKPGASVKVSCKASGYTFTTYYIYWVRQAPGQCLEWMGGSNPSTGGTLDNEKFKTRVTMTVDKSTSTAYMELSSLRSEDTAVYYCTRSGRYAPFTYWGCGTLVTVSSGGGGSGGGGSGGGGSGGGGSDIQMTQSPSSLSASVGDRVTITCKASQDVSTSVAWYQQKPGKAPKLLIYSASYRFTGVPSRFSGSGSGTDFTFTISSLQPEDFATYYCQHYSTTPFTFGCGTKLEIK
light: SYVLTQPPSVSVAPGQTARITCGGNNLGSKSVHWYQQKPGQAPVLVVYDDSDRPSWIPERFSGSNSGNTATLTISRGEAGDEADYYCQVWDSSSDHVVFGGGTKLTVLGQPKAAPSVTLFPPSSEELQANKATLVCLISDFYPGAVTVAWKADSSPVKAGVETTTPSKQSNNKYAASSYLSLTPEQWKSHRSYSCQVTHEGSTVEKTVAPTECS
notes: the junction should be checked against them; also called MTM bispecific antibody; MTM molecule
In experiment [5], B8 returned a dissociation constant (Kd) of 0.0659 nM, a koff of 3.48e-05 s⁻¹ and a kon of 528000 M⁻¹ s⁻¹. Also, in [11], the Kd came to 0.00296 nM, the koff worked out at 3.5e-05 s⁻¹ and the kon came to 1.18e+07 M⁻¹ s⁻¹. Moreover, the “IC50 (pM), hIL-13 inhibitory activity” value in experiment [8] turned out to be 66.5 pM. Further, the “IC50 (nM), hTSLP inhibitory activity, reporter gene assay (HEK-293T-hTSLPR-IL7Ra-STAT5-Luciferase cells)” value in experiment [12] worked out at 0.14 nM. Moreover, the “IC50(pM), hIL-4 inhibitory activity, reporter gene assay (HEK-293T.STAT6-GFP cells)” value in experiment [9] was 170 pM.

B9: MMT (bispecific antibody, human IgG4 S228P, kappa)
heavy: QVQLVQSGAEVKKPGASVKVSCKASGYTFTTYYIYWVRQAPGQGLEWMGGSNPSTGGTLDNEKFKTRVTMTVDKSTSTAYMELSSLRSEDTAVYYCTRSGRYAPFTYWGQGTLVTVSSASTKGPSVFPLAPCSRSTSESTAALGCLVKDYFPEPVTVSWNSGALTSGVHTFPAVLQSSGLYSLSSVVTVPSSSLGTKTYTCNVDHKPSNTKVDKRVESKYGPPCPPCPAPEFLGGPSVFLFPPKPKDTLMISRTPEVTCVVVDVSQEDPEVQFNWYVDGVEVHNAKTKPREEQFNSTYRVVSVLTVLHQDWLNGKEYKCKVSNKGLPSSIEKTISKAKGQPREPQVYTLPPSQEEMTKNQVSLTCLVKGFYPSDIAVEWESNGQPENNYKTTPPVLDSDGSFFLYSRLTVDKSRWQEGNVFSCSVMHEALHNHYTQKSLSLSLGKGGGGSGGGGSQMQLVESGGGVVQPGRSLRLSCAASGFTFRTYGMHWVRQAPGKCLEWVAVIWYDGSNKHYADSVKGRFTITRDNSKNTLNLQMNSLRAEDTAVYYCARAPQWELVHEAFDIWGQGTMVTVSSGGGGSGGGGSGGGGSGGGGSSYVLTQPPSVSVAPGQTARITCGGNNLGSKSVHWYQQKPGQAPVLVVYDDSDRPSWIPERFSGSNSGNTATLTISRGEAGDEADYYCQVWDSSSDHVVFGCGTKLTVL
light: DIQMTQSPSSLSASVGDRVTITCKASQDVSTSVAWYQQKPGKAPKLLIYSASYRFTGVPSRFSGSGSGTDFTFTISSLQPEDFATYYCQHYSTTPFTFGQGTKLEIKRTVAAPSVFIFPPSDEQLKSGTASVVCLLNNFYPREAKVQWKVDNALQSGNSQESVTEQDSKDSTYSLSSTLTLSKADYEKHKVYACEVTHQGLSSPVTKSFNRGEC
notes: the junction should be checked against them; also called MMT bispecific antibody; MMT molecule
In [5], B9 showed a Kd of 0.0598 nM, a koff of 4.35e-05 s⁻¹ and an on-rate constant (kon) of 727000 M⁻¹ s⁻¹. In [11], this molecule showed a Kd of 0.0188 nM, a koff of 5.88e-05 s⁻¹ and a kon of 3.14e+06 M⁻¹ s⁻¹. Besides, the “IC50 (pM), hIL-13 inhibitory activity” value in experiment [8] was determined as 133 pM. In experiment [12], the “IC50 (nM), hTSLP inhibitory activity, reporter gene assay (HEK-293T-hTSLPR-IL7Ra-STAT5-Luciferase cells)” value worked out at 0.3 nM.

B10: Dupilumab (antibody, V domains shown)
VH: EVQLVESGGGLEQPGGSLRLSCAGSGFTFRDYAMTWVRQAPGKGLEWVSSISGSGGNTYYADSVKGRFTISRDNSKNTLYLQMNSLRAEDTAVYYCAKDRLSITIRPRYYGLDVWGQGTTVTVSS
VL: DIVMTQSPLSLPVTPGEPASISCRSSQSLLYSIGYNYLDWYLQKSGQSPQLLIYLGSNRASGVPDRFSGSGSGTDFTLKISRVEAEDVGFYYCMQALQTPYTFGQGTKLEIKR
In the case of B10, the EC50 in [1] is 0.3 nM. For the same molecule, the “IC50(pM) … TF-1 proliferation inhibition assay” value in [4] was 140 pM. For the same molecule, in experiment [5], the Kd was determined as 0.0616 nM, the koff amounted to 5.7e-05 s⁻¹ and the kon was determined as 924000 M⁻¹ s⁻¹. The “IC50(pM), hIL-4 Blocking Activity” value in experiment [6] is 201 pM. In [7], the Kd amounted to 0.0379 nM, the koff came to 5.4e-05 s⁻¹ and the association rate constant (kon) was 1.43e+06 M⁻¹ s⁻¹. Besides, in [3], the “IC50 (nM), Cell-based Assay Data” value came to 0.81 nM. Besides, in experiment [8], the “IC50 (pM), hIL-13 inhibitory activity” value was determined as 41 pM.
